± gives the standard deviation of the averaged measurements.
B1: library; a variant is named by its letters at N, in order (parent)
chain: GCUGUCACCGGUGUAUUACCCUAGUGGUCGACCGGUCUGAUGAGUCUNNNNNNAGACGAAACAGC

What was measured:
[1] = variants of: B1; assay: FACS-Seq fitted mean relative fluorescence mCherry/BFP without ligand (log10 relative fluorescence); ligand: hypoxanthine (xanthine aptamer); higher = higher reporter protein expression; conditions: HEK293T, ligand present: no
Outline: (§1)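 Fluorescence is reported as a normalized fitted mean of sorted-bin read counts. Lentivirally transduced HEK293T libraries (mCherry ribozyme-switch reporter, EF1α-BFP marker) were enriched, treated with or without ligand for 48 h, and sorted into 6 mCherry/BFP bins for MiSeq sequencing of PCR-amplified genomic DNA. The normal fit was on log10(mCherry/BFP), scaled to five spiked-in control ribozymes.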

[2] = variants of: B1; assay: normalized RNA/DNA level with ligand (relative to sTRSVctl = 100) (log10 (% of sTRSVctl)); ligand: hypoxanthine (xanthine aptamer); higher = less ribozyme self-cleavage, higher mRNA level; conditions: ligand concentration (+) RNA-Seq: 5 mM, HEK293T, reporter: mCherry (pCS4076), ligand present: yes
Outline: (§2)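 Library plasmids encoding reporter-linked ribozyme switches (mCherry, or eGFP for some folinic acid experiments) were transfected into HEK293T at 4 µg per 6-well well. Ligand, when used, was added 1 h before transfection. Total RNA was extracted with EDTA 72 h later, then reverse-transcribed, amplified, barcoded and sequenced. RNA level was RNA reads over DNA reads, divided by a spiked-in non-cleaving control (or the top 25 sequences), ×100, log10; only sequences with ≥100 DNA reads were kept.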

[3] = variants of: B1; assay: normalized RNA/DNA level without ligand (relative to sTRSVctl = 100) (log10 (% of sTRSVctl)); ligand: hypoxanthine (xanthine aptamer); higher = less ribozyme self-cleavage, higher mRNA level; conditions: HEK293T, reporter: mCherry (pCS4076), ligand present: no
Outline: as §2

[4] = variants of: B1; assay: FACS-Seq fitted mean relative fluorescence mCherry/BFP with ligand (log10 relative fluorescence); ligand: hypoxanthine (xanthine aptamer); ligand concentration (+) FACS-Seq: 5 mM; higher = higher reporter protein expression; conditions: HEK293T, ligand present: yes
Outline: as §1

| Variant | FACS-Seq fitted mean (log10) [1] | normalized RNA/DNA level with ligand (log10) [2] | normalized RNA/DNA level without ligand (log10) [3] | FACS-Seq fitted mean (log10) [4] |
| --- | --- | --- | --- | --- |
| CAUUUA | -0.0161 ± 0.022 | 1.98 ± 0.036 | 1.77 ± 0.034 | 0.532 ± 0.019 |
| CAUUUC | 0.66 ± 0.057 | 1.92 ± 0.043 | 1.9 ± 0.069 | 0.774 ± 0.066 |
| UCAAAG | -0.374 ± 0.059 | 1.92 ± 0.072 | 1.68 ± 0.039 | -0.184 ± 0.025 |
| UCAAAU | 0.4822 ± 0.0021 | 1.92 ± 0.02 | 1.77 ± 0.036 | 0.54 ± 0.053 |
| UCAAAA | 0.491 ± 0.022 | 1.934 ± 0.013 | 1.717 ± 0.0054 | 0.446 ± 0.019 |
| UAUUAU | 0.643 ± 0.015 | 1.93 ± 0.023 | 1.8 ± 0.028 | 0.594 ± 0.024 |
| UAUUAA | 0.486 ± 0.054 | 1.89 ± 0.0083 | 1.86 ± 0.022 | 0.724 ± 0.088 |
| UAUUAC | 0.513 ± 0.025 | 1.9 ± 0.054 | 1.823 ± 0.018 | 0.512 ± 0.011 |
| CAUUAA | 0.176 ± 0.0055 | 1.87 ± 0.071 | 1.712 ± 0.015 | 0.306 ± 0.052 |
| CAUUAU | 0.7325 ± 0.0015 | 1.9 ± 0.08 | 1.8 ± 0.021 | 0.778 ± 0.098 |
| ACACGA | -0.273 ± 0.0021 | 1.91 ± 0.062 | 1.73 ± 0.058 | 0.145 ± 0.0024 |
| ACACGU | 0.624 ± 0.02 | 1.95 ± 0.079 | 1.823 ± 0.0069 | 0.572 ± 0.096 |
| ACACGG | -0.144 ± 0.07 | 1.79 ± 0.053 | 1.32 ± 0.041 | 0.465 ± 0.024 |
| CCAUAU | 0.286 ± 0.014 | 1.96 ± 0.029 | 1.82 ± 0.057 | 0.542 ± 0.01 |
| CCAUAC | 0.1516 ± 0.0013 | 1.9 ± 0.031 | 1.836 ± 0.011 | 0.283 ± 0.013 |
| UCAUCA | 0.87 ± 0.1 | 1.99 ± 0.031 | 1.98 ± 0.044 | 0.763 ± 0.052 |
| AAUUGA | -0.0788 ± 0.062 | 1.9 ± 0.041 | 1.73 ± 0.018 | -0.112 ± 0.16 |
| AAUUGG | 0.22 ± 0.02 | 1.872 ± 0.014 | 1.405 ± 0.0046 | 0.658 ± 0.036 |
| GCAAGA | 0.209 ± 0.025 | 1.94 ± 0.045 | 1.708 ± 0.0095 | 0.332 ± 0.0071 |
| AAUUUG | 0.3 ± 0.021 | 1.873 ± 0.012 | 1.57 ± 0.046 | 0.468 ± 0.064 |
| GAUUGU | 0.452 ± 0.076 | 1.944 ± 0.01 | 1.77 ± 0.042 | 0.601 ± 0.054 |
| GAUUGG | -0.303 ± 0.024 | 1.794 ± 0.017 | 1.29 ± 0.047 | 0.393 ± 0.017 |
| GAUUGA | 0.348 ± 0.023 | 1.92 ± 0.022 | 1.61 ± 0.05 | 0.455 ± 0.063 |
| GAUUGC | 0.4839 ± 0.0013 | 1.87 ± 0.054 | 1.65 ± 0.043 | 0.553 ± 0.01 |

| Variant | FACS-Seq fitted mean (log10) [1] | normalized RNA/DNA level with ligand (log10) [2] | normalized RNA/DNA level without ligand (log10) [3] | FACS-Seq fitted mean (log10) [4] |
| --- | --- | --- | --- | --- |
| GAUUCG | -0.06 ± 0.056 | 1.906 ± 0.0054 | 1.54 ± 0.021 | 0.357 ± 0.021 |
| GCACGG | -0.136 ± 0.023 | 1.86 ± 0.026 | 1.444 ± 0.009 | 0.376 ± 0.087 |
| UCACAU | -0.364 ± 0.044 | 1.93 ± 0.051 | 1.8 ± 0.021 | 0.26 ± 0.027 |
| CCAAGU | 0.347 ± 0.027 | 1.94 ± 0.024 | 1.863 ± 0.016 | 0.544 ± 0.032 |
| CCAAGC | 0.126 ± 0.14 | 1.938 ± 0.012 | 1.79 ± 0.15 | 0.366 ± 0.074 |
| CCAGCC | -0.754 ± 0.048 | 2 ± 0.026 | 1.916 ± 0.013 | -0.409 ± 0.044 |
| UCAAUC | 0.3976 ± 0.0018 | 2.0151 ± 0.001 | 2 ± 0.024 | 0.543 ± 0.12 |
| ACAAGA | 0.164 ± 0.1 | 1.891 ± 0.0031 | 1.65 ± 0.037 | 0.121 ± 0.037 |
| ACAAGC | 0.743 ± 0.017 | 1.92 ± 0.033 | 1.76 ± 0.015 | 0.863 ± 0.082 |
| ACAAGG | -0.00738 ± 0.11 | 1.83 ± 0.065 | 1.26 ± 0.024 | 0.113 ± 0.14 |
| ACAAAC | 0.5372 ± 0.0045 | 1.93 ± 0.062 | 1.826 ± 0.017 | 0.517 ± 0.046 |
| ACAAAA | 0.4 ± 0.17 | 1.904 ± 0.0062 | 1.81 ± 0.021 | 0.1925 ± 0.0013 |
| ACAAAG | 0.343 ± 0.016 | 1.901 ± 0.0069 | 1.54 ± 0.028 | 0.696 ± 0.034 |
| ACAAAU | 0.311 ± 0.091 | 1.89 ± 0.029 | 1.65 ± 0.044 | 0.331 ± 0.014 |
| ACAGAG | 0.0524 ± 0.0076 | 1.79 ± 0.044 | 1.34 ± 0.041 | 0.353 ± 0.058 |
| ACAGAU | 0.263 ± 0.00091 | 1.89 ± 0.033 | 1.64 ± 0.049 | 0.461 ± 0.069 |
| ACAUAA | 0.531 ± 0.011 | 1.899 ± 0.0086 | 1.79 ± 0.021 | 0.532 ± 0.029 |
| ACAUAG | 0.305 ± 0.026 | 1.84 ± 0.072 | 1.52 ± 0.024 | 0.522 ± 0.046 |
| ACAGCG | 0.12 ± 0.062 | 1.92 ± 0.028 | 1.67 ± 0.0018 | 0.456 ± 0.065 |
| GAUGCU | -0.0807 ± 0.06 | 1.93 ± 0.063 | 1.867 ± 0.012 | 0.0649 ± 0.0092 |
| GAUGCG | 0.0728 ± 0.0046 | 1.87 ± 0.038 | 1.498 ± 0.0066 | 0.5658 ± 0.0024 |
| GAUGCC | 0.537 ± 0.022 | 1.96 ± 0.024 | 1.879 ± 0.018 | 0.5688 ± 0.0033 |
| GAUUAC | 0.748 ± 0.036 | 1.935 ± 0.0039 | 1.8 ± 0.049 | 0.749 ± 0.12 |
| GAUUAU | 0.368 ± 0.062 | 1.945 ± 0.0077 | 1.839 ± 0.012 | 0.455 ± 0.019 |

| Variant | FACS-Seq fitted mean (log10) [1] | normalized RNA/DNA level with ligand (log10) [2] | normalized RNA/DNA level without ligand (log10) [3] | FACS-Seq fitted mean (log10) [4] |
| --- | --- | --- | --- | --- |
| GAUUAG | 0.0562 ± 0.066 | 1.86 ± 0.075 | 1.39 ± 0.014 | 0.539 ± 0.085 |
| GAUUAA | 0.276 ± 0.0053 | 1.949 ± 0.012 | 1.79 ± 0.044 | 0.381 ± 0.012 |
| UCAGCG | 0.383 ± 0.009 | 1.94 ± 0.067 | 1.8203 ± 0.0012 | 0.656 ± 0.083 |
| CCAACC | 0.551 ± 0.044 | 1.94 ± 0.021 | 1.95 ± 0.054 | 0.584 ± 0.055 |
| CCAACU | 0.611 ± 0.037 | 2.02 ± 0.025 | 1.945 ± 0.012 | 0.58 ± 0.015 |
| UCAACA | 0.101 ± 0.027 | 1.959 ± 0.018 | 1.84 ± 0.024 | 0.297 ± 0.054 |
| UCAACG | 0.504 ± 0.15 | 1.918 ± 0.0024 | 1.783 ± 0.015 | 0.585 ± 0.091 |
| GCAUCG | 0.0876 ± 0.11 | 1.964 ± 0.018 | 1.506 ± 0.0042 | 0.53188 ± 0.00023 |
| UCAGUA | 0.09 ± 0.0096 | 1.92 ± 0.069 | 1.797 ± 0.013 | 0.386 ± 0.036 |
| UCAGUU | -0.0872 ± 0.018 | 1.96 ± 0.046 | 1.87 ± 0.04 | 0.0688 ± 0.016 |
| CCACCC | 0.2004 ± 0.0019 | 1.93 ± 0.044 | 1.93 ± 0.045 | 0.312 ± 0.0055 |
| UAUGUG | -0.0408 ± 0.016 | 1.91 ± 0.022 | 1.7 ± 0.034 | 0.0665 ± 0.031 |
| UAUGUC | -0.423 ± 0.035 | 1.944 ± 0.011 | 1.95 ± 0.053 | -0.356 ± 0.048 |
| GAUGUG | 0.2 ± 0.026 | 1.82 ± 0.019 | 1.31 ± 0.06 | 0.673 ± 0.077 |
| GAUGUU | 0.33 ± 0.0059 | 1.914 ± 0.017 | 1.841 ± 0.0059 | 0.447 ± 0.029 |
| ACACCC | 0.129 ± 0.016 | 1.97 ± 0.1 | 1.87 ± 0.12 | 0.45298 ± 0.00015 |
| GAUUUA | 0.541 ± 0.043 | 1.89 ± 0.036 | 1.87 ± 0.051 | 0.437 ± 0.1 |
| GAUUUG | 0.162 ± 0.045 | 1.87 ± 0.046 | 1.4542 ± 0.00087 | 0.521 ± 0.0058 |
| UCACCA | 0.743 ± 0.044 | 1.93 ± 0.025 | 1.919 ± 0.0074 | 0.834 ± 0.076 |
| UCACCU | 0.67 ± 0.034 | 1.94 ± 0.037 | 1.94 ± 0.061 | 0.419 ± 0.013 |
| UCACCG | 0.705 ± 0.011 | 1.94 ± 0.027 | 1.7 ± 0.025 | 0.592 ± 0.045 |
| GCAGAA | 0.408 ± 0.02 | 1.88 ± 0.057 | 1.7 ± 0.031 | 0.472 ± 0.013 |
| GCAGAU | -0.106 ± 0.1 | 1.92 ± 0.077 | 1.76 ± 0.031 | -0.1997 ± 0.0017 |
| GCAGAG | 0.09517 ± 0.00035 | 1.78 ± 0.031 | 1.35 ± 0.051 | 0.558 ± 0.037 |

Reference: the supplement of paper PMC6757056
